Among the data in patent US20140366219A1, “Increasing Soybean Defense Against Pests” (priority 2011, published 2014) are Km and reduction of susceptibility values, retold here.

Where “and” joins values, the source holds several entries; their conditions need not be identical. Equal entries are not always repeated.

Substrate in data set [1]: COC(=O)c1ccccc1O
The data set is described as follows: Two-step radiochemical methyl ester esterase assay, kinetic parameters of GmSABP2-1. The following applies: other: MeSA 5 μM to 100 μM, Lineweaver-Burk; 25.0 °C. Format: biochemical, soybean. Here is the method: A two-step radiochemical esterase assay was performed to determine the activity of E. coli-expressed Glyma16g26060 following a protocol previously reported by (Forouhar et al., Proc. Natl. Acad. Sci. USA 102: 1773-1778, 2005). The reaction of the first step was the reaction of substrate 10 μM MeSA and purified recombinant E. coli-expressed Glyma16g26060 for 30 min at 25° C. After that, the sample was boiled to stop the reaction and denature the enzyme. The second reaction step was started with the addition of 3 μM ^14C labeled S-adenosyl-L-methionine (SAM) with a specific activity of 51.4 mCi/mmol (Perkin Elmer, Boston, Mass., USA), and respective known purified methyltransferase with high activity. Here, GmSAMT1 mentioned previously was used for SA methyltransferase enzyme. The reaction was preceded for 30 min at 25° C. Then radiolabeled products were extracted and the radioactivity was counted using a liquid scintillation counter.
Appropriate enzyme concentrations and incubation time were determined in time-course assays so that the reaction velocity was linear during the assay period. To determine the Km for MeSA, the concentrations of MeSA were independently varied in the range from 5 μM to 100 μM. Lineweaver-Burk plots were made to obtain apparent Km value. Optimal pH for GmSABP2-1 was assayed from pH 6.0 to pH 9.0. Final values are an average of three independent measurements.

Substrate in data set [2]: O=C(O)c1ccccc1O
The data set is described as follows: Determination of kinetic parameters of GmSAMT1 (Lineweaver-Burk). Format: biochemical, soybean. The note with it: other: SA varied 2 to 150 μM, SAM 200 μM, 25° C., 30 min. Here is the method:
A 50 μl volume containing 50 mM Tris-HCl, pH 7.5, 1 mM SA, and 3 μM ^14C-SAM with a specific activity of 51.4 mCi/mmol (Perkin-Elmer, Boston, Mass.) was used. The assay was initiated by addition of SAM, maintained at 25° C. for 30 min, and stopped by the addition of ethyl acetate (150 μl). After phase separation by 1 min centrifugation at 14,000 g, the upper organic phase was counted using a liquid scintillation counter (Beckman Coulter, Fullerton, Calif.). The radiation counts in the organic phase indicated the amount of synthesized MeSA. Substrate specificity assay was also performed for recombinant GmSAMT1, with a range of substrates including SA, benzoic acid, anthranilic acid, 3-hydroxybenzoic acid, 4-hydroxybenzoic acid, nicotinic acid, p-coumaric acid, caffeic acid, cinnamic acid, vanallic acid, jasmonic acid (JA), gibberellic acid, indole-3-acetic acid, and 2,4-dichlorophenoxyacetic acid. The activity with SA was set at 100%. Three independent assays were performed for each compound.
Appropriate enzyme concentrations and incubation time were determined in time course assays to make sure that the reaction velocity was linear during the assay period. Lineweaver-Burk plots yielded apparent Km values. To determine the Km for SA, concentrations of SA were independently varied from 2 to 150 μM, while SAM was held constant at 200 μM. […]

Another data set has as its system SCN race 2. The data set is described as follows: Nematode infection and demographics assay in transgenic soybean hairy roots. Format: in vivo, Heterodera glycines. The note with it: TN02-275 background; susceptibility of vector control in susceptible background set at 100%. From the text: The soybean hairy root transformation system by infection with A. rhizogenes harboring the target genes were modified and used to study soybean resistance against SCN. A. rhizogenes K599 harboring the target gene, vector control and A. rhizogenes K599 alone were used to inoculate the TN02-275 soybeans, which are susceptible to SCN race 2. To better evaluate the resistance of the target gene, A. rhizogenes harboring the vector control and A. rhizogenes K599 alone were also used to inoculate the TN02-226 soybeans, which are resistant to SCN race 2. Generation of soybean hairy roots was modified as follows: First, soybean seeds were sterilized with chlorine gas. Second, a single layer of mature soybean seeds with intact seed coats were placed in open Petri dish, which was put in a bell jar desiccator within a fume hood. A beaker with 100 ml bleach was also placed in the desiccator and added 5 ml concentrated (12N) HCl along the side of the beaker. Then the seeds were kept in the closed desiccator immediately and maintained in the chlorine gas atmosphere overnight (about 16 h). After sterilization, seeds were transferred to the autoclaved filter paper moistened with sterilized distilled water in the Petri dishes for germination in a laminar flow hood. The germinated soybean seeds were sowed in sterilized vermiculite and six seeds were grown in each cell of 18-cell germination tray. The overnight cultured bacteria lawn of A. rhizogenes K599 with binary vector pJL-OFP, pJL-OFP-35S::GUS or pJL-OFP-35S::GmSAMT1 from LB medium plate containing […] kanamycin, or a culture of A. rhizogenes K599 lacking the binary vector grown in LB medium without any antibiotics was collected and suspended in 1 ml of sterile distilled water, respectively. Soybean cotyledonary nodes and upper hypocotyls of 5-day-old seedlings with unfolded cotyledons were stabbed three times by the syringe containing the bacterial suspension. In the first week, the trays were covered with the sterile transparent lids to retain high humidity. In the subsequent three weeks, plants were transferred into pots and the A. rhizogenes wounding sites were covered by wet sterile vermiculite to continually keep high humidity. Each day soybean plants were watered using sterile B&D solution containing 1 mM CaCl2, 0.5 mM KH2PO4, 10 μM Fe-citrate, 0.25 mM MgSO4, 0.25 mM K2SO4, 1 μM MnSO4, 2 μM H3BO4, 0.5 μM ZnSO4, 2 μM CuSO4, 0.1 μM CoSO4, 0.1 μM Na2MoO4, and 1 mM KNO3. The growth conditions for soybean plants were 12 h light/12 h dark at 28° C./25° C. with irradiance from fluorescent bulbs at 150-200 μmol m^−2·s^−1. After about four weeks, the hairy roots grew to approximately 10 cm in length. Soybean transgenic roots were detected based on OFP expression, using a fluorescence stereomicroscope (Olympus SZX12 fluorescence microscope and OFP filter). The tap root and non-transgenic roots were excised under the wounding site. Transgenic roots harboring pJL-OFP-35S::GUS screened by OFP signal were immersed in GUS solution (1 mM X-Gluc), 0.5 mM potassium ferrocyanide, 0.1% (v/v) TRITON™ X-100, 100 mM sodium phosphate buffer pH 7.0), and incubated at 37° C. overnight. In the following day, the X-Gluc solution was discarded. The roots were washed repeatedly with 70% ethanol to remove chlorophyll. Transgenic roots with visual GUS stain were recorded.
To easily compare the SCN infection, one transgenic root was left for the SCN inoculation. […]

B1: GmSABP2-1 (Glycine max) (protein)
chain: MGSQNCMDRKHYVLVHGACHGAWCWYKLKPRLESAGHKVTVLDLAASGTNMKKIEDVDTFSEYSAPLLQLMATIPSNEKLVLVGHSLGGLNIALAMEKFPEKVAVGVFLTAFAPDTEHHPSYVLEKYNERTPLAAWLDTEFAPSGNKTSMFFGPNFLSDKLYQLSPIEDLELAKTLARPSSLFMEDLTKQKNFSKEGYGSVPRAFIVCTEDLGIPLEYQLLMIQNVGFNDVVEVKDADHMVMLCKPQELFDSLQQIATKYA
For B1, in data set [1], the Km – broadly, the substrate concentration at which the rate is half of its maximum – is 46.2 ± 2.2 µM.

B2: GmSAMT1 (Glycine max) (protein)
chain: MEVAQVLHMNGGVGDASYANNSLVQQKVICLTKPIREEAIRSLYCSTHPRSLAIADLGCSSGPNTLFVVSEFIKIVEKLCRELNHKSPEYKVFLNDLPGNDFNNIFKSLDSVKEKLCDEMESGIGPCYFSGVPGSFYGRVFPYQSLHFVHSSYSLQWLSKVPEGVDNNKGNVYIGSTSPKNVVRAYYEQFQRDFSLFLKCRAEELVEGGRMVLTFLGRRSDDPSSKDGCYIWELLATALSDMVLQGIIREEQLDTFNIPQYTPSPSEVKLEVLKEGSFAINRLEVSEVNWNALDEWNALDFESERSESLSDGEYNVAQCMRAVAEPMLISHFGEAIIEEVFCRYQQILAERMSKEKTKFINVTILLTRKA
With B2, the Km in data set [2] was 32.9 ± 1.7 µM and 46.2 ± 4.2 µM.

B3: GmSABP2-1: soybean methyl salicylate esterase gene (SEQ ID NO: 2), over-expressed in transgenic hairy roots (nucleic acid)
DNA: ATGGGTTCACAAAATTGTATGGATAGGAAGCACTATGTTCTGGTGCATGGGGCATGCCATGGAGCTTGGTGTTGGTATAAGCTCAAGCCACGCTTGGAATCTGCAGGCCATAAGGTCACAGTACTTGACCTTGCAGCTTCTGGAACCAACATGAAGAAAATTGAAGATGTTGATACTTTCTCAGAGTATTCTGCGCCTTTGTTGCAGCTAATGGCCACAATTCCCTCAAATGAGAAGTTAGTTCTAGTTGGTCACAGCCTTGGAGGGCTGAACATAGCACTTGCAATGGAGAAATTCCCAGAAAAGGTAGCAGTTGGTGTTTTCTTAACAGCTTTTGCTCCAGACACTGAACACCACCCATCTTATGTCTTGGAAAAGTACAATGAGAGGACCCCGTTAGCTGCATGGTTAGACACTGAATTTGCTCCAAGCGGAAACAAAACATCAATGTTCTTCGGCCCCAACTTCTTGTCCGACAAGCTCTACCAACTGTCCCCTATTGAGGACTTGGAATTGGCCAAGACTTTAGCAAGGCCATCATCGCTCTTCATGGAAGACTTGACTAAACAAAAGAACTTCTCCAAAGAGGGATATGGGTCAGTTCCACGTGCCTTTATTGTTTGCACGGAGGACCTTGGAATTCCATTGGAATATCAGCTCTTGATGATCCAAAATGTTGGGTTCAATGACGTTGTAGAGGTCAAAGACGCAGATCATATGGTTATGCTTTGCAAGCCACAAGAACTATTCGATTCCCTCCAGCAGATAGCGACTAAATATGCATGA
modifications: Glycine Max
With B3, in the data set on SCN race 2, the reduction of susceptibility is recorded as 84.5%.
